Values quoted from earlier work as cited in article PMC2912330.
Like-named read-outs stand apart in the source and are kept apart here.

How the values were obtained:
[1] = molecular target: VEGFR2 (Homo sapiens) (UniProt P35968)
[2] = molecular target: VEGFR2 (Homo sapiens) (UniProt P35968); remark: listed apart in the source

UniProt P35968, sequence (P35968 20-1356): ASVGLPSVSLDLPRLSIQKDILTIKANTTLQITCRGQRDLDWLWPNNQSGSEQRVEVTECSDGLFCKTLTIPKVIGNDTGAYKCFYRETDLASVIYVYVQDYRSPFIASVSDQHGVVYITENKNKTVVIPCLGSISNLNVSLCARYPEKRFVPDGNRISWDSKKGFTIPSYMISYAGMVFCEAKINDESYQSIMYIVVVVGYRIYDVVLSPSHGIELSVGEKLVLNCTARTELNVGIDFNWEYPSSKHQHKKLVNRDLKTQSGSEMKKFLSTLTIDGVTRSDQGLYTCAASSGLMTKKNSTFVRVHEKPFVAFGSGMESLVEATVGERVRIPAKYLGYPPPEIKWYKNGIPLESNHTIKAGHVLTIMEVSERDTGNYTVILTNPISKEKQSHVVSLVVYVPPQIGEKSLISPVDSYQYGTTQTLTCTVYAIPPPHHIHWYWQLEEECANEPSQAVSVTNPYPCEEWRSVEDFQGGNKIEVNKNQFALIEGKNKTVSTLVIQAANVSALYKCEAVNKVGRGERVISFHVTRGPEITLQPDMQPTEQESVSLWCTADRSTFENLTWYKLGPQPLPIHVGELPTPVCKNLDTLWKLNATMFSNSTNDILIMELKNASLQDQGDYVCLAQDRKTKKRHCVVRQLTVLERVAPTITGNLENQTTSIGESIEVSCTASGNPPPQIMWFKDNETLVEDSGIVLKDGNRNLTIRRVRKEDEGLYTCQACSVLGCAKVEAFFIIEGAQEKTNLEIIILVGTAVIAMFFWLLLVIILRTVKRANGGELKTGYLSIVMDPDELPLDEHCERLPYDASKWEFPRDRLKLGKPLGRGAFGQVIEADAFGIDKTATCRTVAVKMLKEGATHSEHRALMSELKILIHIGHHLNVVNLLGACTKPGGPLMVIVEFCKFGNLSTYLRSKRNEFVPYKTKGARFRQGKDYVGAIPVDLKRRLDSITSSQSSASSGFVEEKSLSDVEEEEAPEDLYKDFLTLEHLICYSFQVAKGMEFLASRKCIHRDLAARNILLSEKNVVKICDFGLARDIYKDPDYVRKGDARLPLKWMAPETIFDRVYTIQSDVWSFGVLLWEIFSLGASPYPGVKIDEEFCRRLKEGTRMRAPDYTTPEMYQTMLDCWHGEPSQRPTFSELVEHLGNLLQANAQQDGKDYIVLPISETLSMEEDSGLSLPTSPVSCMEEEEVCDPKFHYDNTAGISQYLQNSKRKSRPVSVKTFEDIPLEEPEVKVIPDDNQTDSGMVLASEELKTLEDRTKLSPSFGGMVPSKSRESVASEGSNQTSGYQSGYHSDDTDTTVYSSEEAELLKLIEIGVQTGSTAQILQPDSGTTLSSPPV

Row | Substance | Kd [1] [nM] | Kd [2] [nM]
1 | VEGF165 VEGF165 (from UniProt P15692) | 0.1 | 
2 | VEGF114 VEGF114 (from UniProt P15692) |  | 0.1
